The experiment has as its target T1, recombinant human ErbB2/Fc chimera (human, UniProt P04626 23-652).
T1 construct: bought from R&D Systems; also called rhErbB2-Fc; rhErb2-Fc; Fc part of the bought chimera not given; not described
Put plainly: ELISA, coated ErbB2/Fc. On the technique in general: An ELISA detects its analyte on a solid surface through an enzyme-linked reagent.

Where a chain is given by its changes, count along the chain named.

B1: 13F101/1-124 (VHH)
VHH: EVQLVESGGGLVQAGGSLRLSCQLSGGTVSDLHMGWFRQAPGKEREFVGFTRWPSITYIAEHVKGRFTISRDNAKNTVYLQMNSLEREDTAVYYCAADRSYSIDYRHPDSYSYWGQGTQVTVSS
notes: C-term myc-His6 tag
As to B1, the binding result is “binds”.

B2: 22B71/1-114 (VHH)
VHH: EVQLVESGGAFVQPGGSLRLSCAASGSDVWFNVMGWYRQGPGQQLELVASITYGGNINYGDPVKGRFSISRDNALKTVYLQMNSLKPEDTAVYYCYADLPSRLWGQGTQVTVSS
notes: C-term myc-His6 tag
On to B2, for which the binding result is given as “binds”.

B3: 11B21/1-124 (VHH)
VHH: EVQLVESGGGLVQAGGSLRLSCAASGRTFSMYLMGWFRQAPGKEREFVSTINRRGGNTYYADSVKGRFTISRDNARNTVYLQMNSLKPEDTAVYYCAAGGHLLGYDVQWEPDYWGQGTQVTVSS
notes: C-term myc-His6 tag
Turning to B3, the binding result is on record as “binds”.

B4: 11B71/1-126 (VHH)
VHH: EVQLVESGGGLVQAGGSLRLSCAASGRTFERYAMGWFRQAPGKEREFVATISWSGGRDTVYADSVKGRFTISRDNAKNTVYLQMNSLKPEDTAVYYCAAHKRTYELGAHSTDFGSWGQGTQVTVSS
notes: C-term myc-His6 tag
For the molecule B4, the binding result is given as “binds”.

B5: 11B121/1-127 (VHH)
VHH: EVQLVESGGGLVQPGGSLRLSCAASGSSASINTMGWYRQAPGEQRELVAEITEGGIINYTDSVKGRFTISRDNAKNTVYLEMNNLKPEDTAVYYCNADRALYRNYSDGRYYTGYDYWGQGTQVTVSS
notes: C-term myc-His6 tag
For B5, the binding result is listed as “binds”.

B6: 21A121/1-123 (VHH)
VHH: EVQLVESGGGLVQAGGSLRLSCTASGRAFNMGWFRQAPGKEREFVAGVNWGGGSTKVADSVKERFTISRDYDNSPVYLQMNTLKPEDTAVYYCAATSRWYSAVYDLPTRYDYWGQGTQVTVSS
notes: C-term myc-His6 tag
As to B6, the binding result is on record as “binds”.

B7: 14H81/1-125 (VHH)
VHH: EVQLVESGGGLVQAGGSLSLSCAASGRTFSNYRMAWFRQAPRKEREFVAAISRSGESTYFADSMKGRFTISRDNTESTGYLQMNNLKPEDTAVYYCAASWDHGDYVDGGFFYDYWGQGTQVTVSS
notes: C-term myc-His6 tag
Consider B7, for which the binding result is “binds”.

B8: 12C121/1-126 (VHH)
VHH: EVQLVESGGDLVQPGESLRLSCAVSGVTVDYSGIGWFRQAPEKEREAVSCIESGDGTTTYVDSVKGRFTISRDNAKNAVYLQMNSLKPEDTGVYYCATAVFVDSGDFSVCRGVGYWGKGTQVTVSS
notes: C-term myc-His6 tag
Take B8: the binding result is “binds”.

B9: 12C42/1-124 (VHH)
VHH: EVQLVESGGGLVQAGGSLRLSCAASGRTFSRYAMHWFRQAPGSERDFVAGISWDGGSTFYANSVKGRFTISRDNAKNMVYLQMNSLKPEDTAVYYCAAAGSAGPPSIDRQYDYWGQGTQVTVSS
notes: C-term myc-His6 tag
In the case of B9, the binding result is recorded as “binds”.

B10: 13G51/1-127 (VHH)
VHH: EVQLVESGGGLVQAGGSLSLSCAASGGTFNGRAVGWFRQAPGEEREFVTGISWSGGSTDYADSVKGRFTISRDNSKNTVSLQMNSLKPEDTAVYYCAASRRFYSGLVYYSVDAYENWGQGTQVTVSS
notes: C-term myc-His6 tag
With B10, the binding result is “binds”.

B11: 11B81/1-126 (VHH)
VHH: EVQLVESGGGLVQAGGSLRLSCAASGRPVNNYIMGWFRQALGQGREFVAAINRNGATAAYADSVKGRFTISRDNAEDLLYLQMNLLKPEDTAVYYCAANSDSGFDSYSVWAAYEYWGQGTQVTVSS
notes: C-term myc-His6 tag
For the molecule B11, the binding result was “binds”.

B12: 12D92/1-123 (VHH)
VHH: EVQLVESGGGLVQAGGSLRLSCAASGRTYNMAWFRQAPGKEREFVAAMNWSGGSTKYAESVKGRFTISRANDNNPLYLQMNTLKPEDTAVYYCAATNRWYTGVYDLPSRYEYWGQGTQVTVSS
notes: C-term myc-His6 tag
B12: the binding result is reported as “binds”.

B13: 12C71/1-125 (VHH)
VHH: EVQLVESGGGLVQAGGSLRLSCTASGGTFGSYALGWFRQSPGKERESVAAIDWDGSRTQYADSVKGRFTISRENVKDTMYLQMNSLQAEDTGVYYCVRSRHSGNTLSFSLKYDYWGQGTQVTVSS
notes: C-term myc-His6 tag
Take B13: the binding result is “binds”.

B14: 11A43/1-123 (VHH)
VHH: EVQLVESGGGLVQAGGSLRLSCAASGSIFRVNHMGWYRQAPGKQREFVAAITSDHITWYADAVKGRFTISRDNAKNTVTLQMNSLRPEDTAVYYCAADPLLFYGVGSADVDYWGQGTQVTVSS
notes: C-term myc-His6 tag
On to B14, for which the binding result is “binds”.

B15: 12D31/1-115 (VHH)
VHH: EVQLVESGGGLVQPGGSLRLSCAASRNIFDFNDMGWYRQGPGKEREFVALINVGGVAKYEDSVKGRFTISRDNAENTVYLQMNNLKPEDMAVYYCNARILSRNYWGQGNQVTVSS
notes: C-term myc-His6 tag
On to B15, for which the binding result is given as “binds”.

B16: 12C81/1-117 (VHH)
VHH: EVQLVESGGGLVQPGGSLRLSCAGSGNIVRDNTMAWYRQAPGNQRDLVATINVGGGTYYAGPVKGRFTISRDNAKNSVYLQMNSLKPEDTSVYYCNVISGLVQRDYWGQGTQVTVSS
notes: C-term myc-His6 tag
For B16, the binding result is given as “binds”.

B17: 22C51/1-121 (VHH)
VHH: EVQLVESGGGLVQAGASLRLSCAASGRTFSRYDIGWFRQAPGKGREFVAAINWSGGTTSFGDSVKGRFTISRDNAKNTVYLQMNSLKPEDTAVYYCAALRSWPRGVDSGSWGQGTQVTVSS
notes: C-term myc-His6 tag
As for B17, the binding result is recorded as “binds”.

B18: 12C111/1-123 (VHH)
VHH: EVQLVESGGGLVQAGGSLRLSCAVSGLTFSSYAMGWFRQAPGKVREFVATISRSGGRTSYADSVKGRFIVSRDNAKNTADLQMNDLKPEDTAVYYCGASKWYGGFGDTDIEYWGQGTQVTVSS
notes: C-term myc-His6 tag
On to B18, for which the binding result was “binds”.

B19: 22B55/1-123 (VHH)
VHH: B18 VHH with S31T, D85E
notes: C-term myc-His6 tag
Take B19: the binding result was “binds”.

B20: 12C91/1-121 (VHH)
VHH: EVQLVESGGGLVQAGGSLRLSCVASGRTSSYYHMAWFRQAPGKEREFIAAINLSSGSTYYPDSVKGRFTISRGNAKNTVNLQMNSLKPEDTAVYYCAADNYRDSYLEYDYWGQGTQVTVSS
notes: C-term myc-His6 tag
As to B20, the binding result is “binds”.

B21: 22B85/1-120 (VHH)
VHH: EVQLVESGGGLVRPGGSLRLSCATSGSDIGINAMGWYRQAPGNQRELVATITGSTGTTYADSVKGRFAISRDGAKNTVYLQMDSLKPEDTAVYYCNLRVYTGTYGGRNYWGQGTQVTVSS
notes: C-term myc-His6 tag
Turning to B21, the binding result is “binds”.

B22: 13G61/1-118 (VHH)
VHH: EVQLVESGGGVVQAGGSLRLSCAPSGRTFSSYVMGWVRQAPGKAREFVAGITRNSGRTRYADSVKGRFTISRDNADNTVTLQMNSLKPEDTAVYYCAGGIDLYTFHYFGQGTQVTVSS
notes: C-term myc-His6 tag
As for B22, the binding result is reported as “binds”.

B23: 14H41/1-118 (VHH)
VHH: B22 VHH with V11L, G56I, H106D
notes: C-term myc-His6 tag
B23: the binding result is “binds”.

B24: 11C11/1-121 (VHH)
VHH: EVQLVESGGGLVQAGGSLRLSCAASGRTFSAYAMGWFRQAPGKERESVATIRWTGGSSSTSYADSVKGRFTISKNTAENTVYLQMNSLKPEDTAVYYCAVLLTVWDTYKYWGQGTQVTVSS
notes: C-term myc-His6 tag
For the molecule B24, the binding result is reported as “binds”.

B25: 13E61/1-123 (VHH)
VHH: EVQLVESGGGLVQAGGSLRLSCTASGQTFNMGWFRQAPGKEREFVAAISWSQYNTKYADSVKGRFTISRDNAINSLYLQMDTLKPEDTAVYYCAATNRWFSAVYDLPSRYTYWGQGTQVTVSS
notes: C-term myc-His6 tag
With B25, the binding result is on record as “binds”.

B26: 12D11/1-123 (VHH)
VHH: EVQLVESGGGLVQTGGSLRLSCAASGRTFSGSRMGWFRQAPGKEREFVAAIRWSGGITWYAESVKSRFTISRDNTKNTIDLQINSLKPEDTAVYYCAADVIYKNIGSGSFDYWGQGTQVTVSS
notes: C-term myc-His6 tag
On to B26, for which the binding result is “binds”.

B27: 12D14/1-123 (VHH)
VHH: B26 VHH with T14A, F37L, I51V, S66G
notes: C-term myc-His6 tag
For B27, the binding result is on record as “binds”.

B28: 13E101/1-128 (VHH)
VHH: EVQLVESGGGLVQAGGSLRLSCAVSGRTFNNDHMGWFRQAPGTERELVAATGRRGGPTYYADSVKGRFTISRDNAESTVYLQMNSLKAEDTAVYYCAANRYYCSTYGCLSTPRQYDYWGQGTQVTVSS
notes: C-term myc-His6 tag
As to B28, the binding result is “binds”.

B29: 11B12/1-118 (VHH)
VHH: EVQLVESGGGLVQAGGSLRLSCAASGRALINYAMGWFRQAPGKEREFVSAINWSGSHTDYGDSVKGRFAISRDNAKNTVYLQMHSLKPEDTAVYHCATGYSLPAFDSWGPGTQVTVSS
notes: C-term myc-His6 tag
Regarding B29, the binding result is on record as “binds”.

B30: 12D102/1-118 (VHH)
VHH: EVQLVESGGGLVQPGGSLRLSCAASGSSLSFNAMGWSREAPGKRRELVARIISDDSTLYADSVKGRFTISRDYAKNTAYLQMNSLKPEDTAVYYCVADVRDSIWRSYWGQGTQVTVSS
notes: C-term myc-His6 tag
Consider B30, for which the binding result is given as “binds”.

B31: 11B51/1-127 (VHH)
VHH: EVQLVESGGGLVQAGGSLRLSCAASGGTFSGRGMGWFRQAPGKEREFVAAVSWSGGNTYYADSVKGRFTISRDNAKSTVYLQMDSLKPEDTAVYYCAASRRFYSGLYYYTDDAYEYWGQGTQVTVSS
notes: C-term myc-His6 tag
In the case of B31, the binding result is “binds”.

B32: 21A31/1-125 (VHH)
VHH: EVQLVESGGGLVQAGGSLRLSCAASEPTFSSVAMGWFRQGPGKEREFAATITWSGDSTYVTDSVKGRFTISRDNARNTAYLQMDSLRPEDTAVYSCAARRWSGTLSLFDNEYYYWGQGTQVTVSS
notes: C-term myc-His6 tag
In the case of B32, the binding result is given as “binds”.

B33: 14H121/1-113 (VHH)
VHH: EVQLVESGGGLVQPGGSLRLSCAASGITFRFKAMGWFRQGPGKRRELVARIAGGSTNYADSVKGRFTISRDDAKNTVFLQMNSLKPEDTAVYYCNVDGPFGNWGQGTQVTVSS
notes: C-term myc-His6 tag
As to B33, the binding result was “binds”.

The values above are taken from US20150232562A1 (Ablynx, published 2015).
